For 3 molecules, Kd results are on record in paper PMC10696396 (2023).

B1: HilD (full-length, unfused) (natural protein)
chain: MENVTFVSNSHQRPAADNLQKLKSLLTNTRQQIKSQTQQVTIKNLYVSSFTLVCFRSGKLTISNNHDTIYCDEPGMLVLKKEQVVNVTLEEVNGHMDFDILEIPTQRLGALYALIPNEQQTKMAVPTEKAQKIFYTPDFPARREVFEHLKTAFSCTKDTSKGCSNCNNKSCIENEELIPYFLLFLLTAFLRLPESYEIILSSAQITLKERVYNIISSSPSRQWKLTDVADHIFMSTSTLKRKLAEEGTSFSDIYLSARMNQAAKLLRIGNHNVNAVALKCGYDSTSYFIQCFKKYFKTTPSTFIKMANH
B2: His6-SUMO-HilE (natural protein)
chain: MDAIYLKLDGIEGESRIKGFENQIKLIAYNHNPTKRESGEARGTYIGGLTLTKPVDLATPGLYEHYCNGKTVKEGVLTLCRRDKGAMLPFIIYTLTNVRISRMSNHGDAEGSATETVDLVYSHIRWDIPALASKSKTRRPLHRQALWR
modifications: RED-tris-NTA 2nd Generation dye bound to the His6 tag
B3: HilE (natural protein)
chain: B2 chain

What all share (assay): MST
The test “His6-SUMO-HilE” addresses B2.
The next test deals with HilD S216I/S218D.
For the next test, the target named is HilD K279M.
Test [1] concerns the target EYFP-HilD E102A/K264A/R267A.

For B1, the Kd with His6-SUMO-HilE is 1890 nM.
Consider B2, for which the Kd in the test with HilD S216I/S218D turned out to be 1160 nM; with HilD K279M it was 2120 nM.
Molecule B3 showed a Kd in test [1] of 1680 nM.
